Our source for the Ka values is PMC9082959, “Mechanism of Assembly of the Non-Covalent Spectrin Tetramerization Domain from Intrinsically Disordered Partners” (Journal of molecular biology, 2013).

Substitutions are numbered along the chain they refer to.

What all share (assay): ITC; β16β17 at 25–50 μM in the cell titrated with 15–20 injections to 2–2.5 eq of α0α1; one-site binding model; PBS (50 mM sodium phosphate, 150 mM NaCl, pH 7.04), 25 °C; mutants only against the wild-type partner
Conditions in all cases: both partners purified

In one assay the target is T1, β16β17 S16A (human, UniProt P11277 1898-2083, S2019A).
T1 construct: erythrocyte β-spectrin, human, residues 1898-2083 (β16β17); mutant of m2; also called S2019A; source: E. coli C41(DE3), purified (Ni2+ agarose, thrombin cleavage, gel filtration)
T1 sequence (looked up): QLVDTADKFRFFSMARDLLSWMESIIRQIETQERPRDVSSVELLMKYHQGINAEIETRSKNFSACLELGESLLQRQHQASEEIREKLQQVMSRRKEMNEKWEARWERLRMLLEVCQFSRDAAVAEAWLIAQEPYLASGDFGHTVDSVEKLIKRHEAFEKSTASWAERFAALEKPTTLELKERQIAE

In another assay the target is T2, β16β17 D39G (human, UniProt P11277 1898-2083, D2042G).
T2 construct: erythrocyte β-spectrin, human, residues 1898-2083 (β16β17); mutant of m2; also called D2042G; source: E. coli C41(DE3), purified (Ni2+ agarose, thrombin cleavage, gel filtration)
T2 sequence (looked up): T1 sequence (looked up) with A122S, D145G

In another assay the target is T3, β16β17 K43G (human, UniProt P11277 1898-2083, K2046G).
T3 construct: erythrocyte β-spectrin, human, residues 1898-2083 (β16β17); mutant of m2; also called K2046G; source: E. coli C41(DE3), purified (Ni2+ agarose, thrombin cleavage, gel filtration)
T3 sequence (looked up): T1 sequence (looked up) with A122S, K149G

The target in the next assay is T4, β16β17 K53A (human, UniProt P11277 1898-2083, K2056A).
T4 construct: erythrocyte β-spectrin, human, residues 1898-2083 (β16β17); mutant of m2; also called K2056A; source: E. coli C41(DE3), purified (Ni2+ agarose, thrombin cleavage, gel filtration)
T4 sequence (looked up): T1 sequence (looked up) with A122S, K159A

For a further assay, the target named is T5, β16β17 S57G (human, UniProt P11277 1898-2083, S2060G).
T5 construct: erythrocyte β-spectrin, human, residues 1898-2083 (β16β17); mutant of m2; also called S2060G; source: E. coli C41(DE3), purified (Ni2+ agarose, thrombin cleavage, gel filtration)
T5 sequence (looked up): T1 sequence (looked up) with A122S, S163G

Another assay concerns the target T6, β16β17 K67A (human, UniProt P11277 1898-2083, K2070A).
T6 construct: erythrocyte β-spectrin, human, residues 1898-2083 (β16β17); mutant of m2; also called K2070A; source: E. coli C41(DE3), purified (Ni2+ agarose, thrombin cleavage, gel filtration)
T6 sequence (looked up): T1 sequence (looked up) with A122S, K173A

B1: α0α1 (erythrocyte α-spectrin residues 2–163), wild type (domain or fragment, human, UniProt P02549 2-163, looked up)
chain: EQFPKETVVESSGPKVLETAEEIQERRQEVLTRYQSFKERVAERGQKLEDSYHLQVFKRDADDLGKWIMEKVNILTDKSYEDPTNIQGKYQKHQSLEAEVQTKSRLMSELEKTREERFTMGHSAHEETKAHIEELRHLWDLLLELTLEKGDQLLRALKFQQY
notes: synthetic gene (GenScript) in a modified pRSETA plasmid; also called α1α0; source: E. coli C41(DE3), purified (Ni2+ agarose, thrombin cleavage, gel filtration)
Take B1: the Ka with β16β17 S16A stood at 490000 M⁻¹; with β16β17 D39G it was 280000 M⁻¹; in the assay with β16β17 K43G, 328000 M⁻¹; with β16β17 K53A, 1.5e+06 M⁻¹; with β16β17 S57G, 900000 M⁻¹; in the assay with β16β17 K67A, 500000 M⁻¹.
